# Ends that are not written are not given here.
# Biological target: Stx2a A-subunit (dissociated from recombinant Stx2a) (enterohemorrhagic Escherichia coli …, UniProt P09385 23-319)
# Assay: AlphaScreen or HTRF
# Settings: both partners purified
# Chain of Stx2a A-subunit (dissociated from recombinant Stx2a) (P09385 23-319): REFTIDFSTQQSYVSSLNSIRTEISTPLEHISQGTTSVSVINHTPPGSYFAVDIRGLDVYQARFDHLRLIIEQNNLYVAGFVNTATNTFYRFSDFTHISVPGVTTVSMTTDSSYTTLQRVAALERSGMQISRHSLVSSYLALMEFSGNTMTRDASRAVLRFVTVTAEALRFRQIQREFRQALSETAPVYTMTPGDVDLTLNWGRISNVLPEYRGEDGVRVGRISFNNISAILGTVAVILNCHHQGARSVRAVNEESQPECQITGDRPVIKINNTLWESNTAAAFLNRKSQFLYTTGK
binder,measurement,value
RRRRA-NH2 (source: synthetic peptide) [R4A-mono],IC50,2700 nM

# — PMC9259562 (Scientific Reports, 2022)
